We go through three molecules from article PMC11039692, “SRY-Box transcription factor 9 triggers YAP nuclear entry via direct interaction in tumors” (Signal Transduction and Targeted Therapy, 2024).

Test [1] concerns the target T1, His-tagged YAP purified from Escherichia coli (human, UniProt P46937 1-504).
T1 construct: YAP, recombinant; Labelled with RED-tris-NTA 2nd Generation dye where it was the labelled partner; also called YAP protein; source: Escherichia coli, purified
The test can be described thus: MST; SOX9-HMG (aa 98–181) with YAP protein; which of the two was labelled is not told; 50 mM Tris-HCl pH 7.4, 150 mM NaCl, 0.05% Tween-20; room temperature. As to conditions: both partners purified.

For test [2], the target named is T1, His-tagged YAP purified from …. Briefly: MST; His-tagged YAP labelled with 25 nM RED-tris-NTA 2nd Generation dye, SOX9 peptide serially diluted; 50 mM Tris-HCl pH 7.4, 150 mM NaCl, 0.05% Tween-20; room temperature; 40% LED power, medium MST power. As to conditions: both partners purified.

T1 sequence (P46937 whole entry): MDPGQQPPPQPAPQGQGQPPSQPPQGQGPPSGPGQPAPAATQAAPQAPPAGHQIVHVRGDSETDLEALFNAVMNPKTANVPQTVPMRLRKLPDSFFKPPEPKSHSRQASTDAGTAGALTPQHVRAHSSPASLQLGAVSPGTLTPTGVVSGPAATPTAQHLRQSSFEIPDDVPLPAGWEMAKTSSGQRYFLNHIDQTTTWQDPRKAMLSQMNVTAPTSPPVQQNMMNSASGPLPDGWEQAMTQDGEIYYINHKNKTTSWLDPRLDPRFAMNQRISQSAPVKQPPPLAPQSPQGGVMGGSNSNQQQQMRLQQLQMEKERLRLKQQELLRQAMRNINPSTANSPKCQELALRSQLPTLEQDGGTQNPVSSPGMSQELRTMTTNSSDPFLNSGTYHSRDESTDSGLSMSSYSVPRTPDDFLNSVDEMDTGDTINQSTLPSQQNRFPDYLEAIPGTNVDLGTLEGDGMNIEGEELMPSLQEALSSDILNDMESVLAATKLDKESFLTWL

B1: SOX9-HMG domain (aa 98–181) (domain or fragment)
chain: not shown
notes: SOX9 HMG domain, residues 98-181; The limits 98-181 are printed for the MST with YAP protein; source: Escherichia coli, purified
What is called Kd is the concentration at which binding is half-saturated. Higher therefore signals a looser complex. B1 yielded a Kd in test [1] of 540 nM.
In test [2], RVNGSSKNKPHVKRPMNAFMVWAQAARRKLADQ (peptide, UniProt P48436 94-126, looked up) [nNLS-containing fragment of SOX9 (aa 94–126)] registered a Kd of 1100 nM.
AFMVWAQAARRKLADQ (peptide, UniProt P48436 111-126, looked up) [peptide S-A1 (SOX9 amino acids 111–126)] had a Kd in test [2] of 2200 nM.
